The results in this text go back to paper PMC6163214, “Etoposide-Induced Apoptosis in Cancer Cells Can Be Reinforced by an Uncoupled Link between Hsp70 and Caspase-3” (International Journal of Molecular Sciences, 2018).

In one assay the target is T1, Hsp70 (Homo sapiens, UniProt P0DMV8).
T1 construct: gene HSPA1A
The experiment in a line: microscale thermophoresis with NT-647-labeled purified Hsp70; supported by DARTS and substrate-binding assay. Background: MST reads how a fluorescent partner responds to local heating, with and without ligand.

Assay [1] deals with Caspase-3 (human (endogenous in U-937)) (UniProt P42574). Description: co-IP; as a4, but biotinylated Hsp70 pretreated with 32 µM BT44.
For assay [2] the target is unchanged. Description: ELISA; same competitive protein-protein interaction assay, read as competition: cellular Hsp70 of the lysate (raised by heat shock or hsp70 transfection) holds Caspase-3 of the lysate away from the immobilised pure Hsp70. For orientation: ELISA stands for enzyme-linked immunosorbent assay.

Chain of Caspase-3 (human (endogenous in U-937)) (P42574 whole entry): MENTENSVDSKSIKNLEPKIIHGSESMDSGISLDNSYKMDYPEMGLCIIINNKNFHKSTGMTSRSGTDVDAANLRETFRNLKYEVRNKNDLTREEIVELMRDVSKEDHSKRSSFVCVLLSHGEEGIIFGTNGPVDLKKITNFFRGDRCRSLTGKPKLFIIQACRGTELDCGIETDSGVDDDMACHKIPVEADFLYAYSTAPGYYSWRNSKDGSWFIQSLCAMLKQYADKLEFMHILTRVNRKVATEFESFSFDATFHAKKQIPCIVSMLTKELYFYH
Chain of Cellular Hsp70 of U-937 cells (P0DMV8 whole entry): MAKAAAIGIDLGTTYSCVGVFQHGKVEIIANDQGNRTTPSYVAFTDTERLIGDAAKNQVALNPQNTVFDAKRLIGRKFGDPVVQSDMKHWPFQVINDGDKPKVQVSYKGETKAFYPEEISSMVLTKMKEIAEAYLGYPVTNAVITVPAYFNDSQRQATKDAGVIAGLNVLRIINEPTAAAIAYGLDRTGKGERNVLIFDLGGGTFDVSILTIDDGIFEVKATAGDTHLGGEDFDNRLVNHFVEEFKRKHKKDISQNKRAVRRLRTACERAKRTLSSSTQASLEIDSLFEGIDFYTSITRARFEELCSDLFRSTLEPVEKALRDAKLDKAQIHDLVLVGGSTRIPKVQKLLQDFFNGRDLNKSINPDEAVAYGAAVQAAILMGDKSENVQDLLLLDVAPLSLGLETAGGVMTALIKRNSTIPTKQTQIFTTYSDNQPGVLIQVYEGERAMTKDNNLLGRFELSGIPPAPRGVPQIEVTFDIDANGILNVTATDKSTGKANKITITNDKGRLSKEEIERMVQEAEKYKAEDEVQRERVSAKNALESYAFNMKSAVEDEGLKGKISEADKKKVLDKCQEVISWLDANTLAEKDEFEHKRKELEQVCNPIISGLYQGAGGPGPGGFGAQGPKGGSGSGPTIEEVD
T1 sequence (P0DMV8 2-641): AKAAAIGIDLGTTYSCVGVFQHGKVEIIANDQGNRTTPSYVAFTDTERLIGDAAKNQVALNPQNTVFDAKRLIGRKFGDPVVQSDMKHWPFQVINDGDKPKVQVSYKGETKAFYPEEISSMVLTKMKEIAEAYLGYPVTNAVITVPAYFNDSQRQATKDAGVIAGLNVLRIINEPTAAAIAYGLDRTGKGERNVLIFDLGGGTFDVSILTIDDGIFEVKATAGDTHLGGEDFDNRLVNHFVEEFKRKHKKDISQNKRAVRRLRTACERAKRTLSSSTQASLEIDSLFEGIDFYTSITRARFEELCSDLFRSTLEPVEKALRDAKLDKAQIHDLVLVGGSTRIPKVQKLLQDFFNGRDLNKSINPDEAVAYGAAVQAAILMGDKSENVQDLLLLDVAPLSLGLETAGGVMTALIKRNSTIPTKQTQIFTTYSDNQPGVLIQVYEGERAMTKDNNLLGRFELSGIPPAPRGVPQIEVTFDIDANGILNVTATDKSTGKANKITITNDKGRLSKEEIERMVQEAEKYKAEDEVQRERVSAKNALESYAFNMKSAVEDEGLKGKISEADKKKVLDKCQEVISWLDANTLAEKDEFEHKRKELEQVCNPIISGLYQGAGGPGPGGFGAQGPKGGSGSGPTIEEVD
Chain of Biotinylated Hsp70 (P0DMV8 whole entry): as the sequence (P0DMV8 whole entry) above

By Kd is commonly meant the concentration at which binding is half-saturated. A low value points to tighter binding. For `CCc1cc(-c2n[nH]cc2-c2ccc3c(c2)OCO3)c(O)cc1OC1OC(CO)C(O)C(O)C1O` (stereo not drawn) [BT44, 2-[4-(4-Benzo[1,3]dioxol-5-yl-1H-pyrazol-3-yl)-2-ethyl-5-hydroxy-phenoxy]-6-hydroxymethyl-tetrahydro-pyran-3,4,5-triol], the Kd at Hsp70 came out at 5.2 ± 0.3 µM.
Take “Biotinylated Hsp70 (from UniProt P0DMV8 1-641) (natural protein)”: in assay [1], the fold lower amount bound with BT44 than without BT44 is 10 fold.
For the molecule “Cellular Hsp70 of U-937 cells (from UniProt P0DMV8 1-641) (natural protein)”, the percent decrease of Caspase-3 bound to immobilized Hsp70 (against U-937wt cells treated with etoposide alone) in assay [2] lay in the range of 35 to 50%.
